Reference: patent publication US20140087995A1 (published 2014)
Numbered stars: 1 amine (or outer) side, 2 acyl side, 3 side chain; on linkers, the order of the positions; unused ones are H or OH. Bridge positions count the residues as written; N and C are the ends. Side chains are listed from the residue outwards. Ends that are not written are not given here. * marks the point of attachment. C20 diacid = O=C(O)CCCCCCCCCCCCCCCCCCC(=O)*; γGlu = O=C(O)[C@H](CCC(=O)[*:2])N[*:1]; AEEA = NCCOCCOCC(=O)O

T1: rat calcitonin receptor (rat, UniProt P32214 25-516)
T1 construct: whole, on cells; Membranes prepared from transiently transfected BHK tk'ts 13 cells (Assay VIII); also called rCTR; rCT
T1 sequence (looked up): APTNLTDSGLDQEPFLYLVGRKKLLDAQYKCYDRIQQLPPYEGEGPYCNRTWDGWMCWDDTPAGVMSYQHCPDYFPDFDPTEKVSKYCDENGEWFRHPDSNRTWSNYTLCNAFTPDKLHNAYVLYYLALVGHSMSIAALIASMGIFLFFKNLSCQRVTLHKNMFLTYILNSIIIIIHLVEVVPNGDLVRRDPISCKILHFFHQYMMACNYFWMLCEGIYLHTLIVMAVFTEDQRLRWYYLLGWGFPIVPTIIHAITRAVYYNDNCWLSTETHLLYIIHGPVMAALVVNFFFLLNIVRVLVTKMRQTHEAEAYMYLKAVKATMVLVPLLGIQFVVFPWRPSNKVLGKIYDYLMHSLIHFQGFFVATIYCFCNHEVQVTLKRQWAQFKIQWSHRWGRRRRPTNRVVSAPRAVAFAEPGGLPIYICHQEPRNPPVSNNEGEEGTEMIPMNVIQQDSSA

T2: human calcitonin receptor (human, UniProt P30988 25-474)
T2 construct: whole, on cells; Membranes prepared from a stably transfected BHK cell line (Assay VII); also called hCTR; hCT
T2 sequence (looked up): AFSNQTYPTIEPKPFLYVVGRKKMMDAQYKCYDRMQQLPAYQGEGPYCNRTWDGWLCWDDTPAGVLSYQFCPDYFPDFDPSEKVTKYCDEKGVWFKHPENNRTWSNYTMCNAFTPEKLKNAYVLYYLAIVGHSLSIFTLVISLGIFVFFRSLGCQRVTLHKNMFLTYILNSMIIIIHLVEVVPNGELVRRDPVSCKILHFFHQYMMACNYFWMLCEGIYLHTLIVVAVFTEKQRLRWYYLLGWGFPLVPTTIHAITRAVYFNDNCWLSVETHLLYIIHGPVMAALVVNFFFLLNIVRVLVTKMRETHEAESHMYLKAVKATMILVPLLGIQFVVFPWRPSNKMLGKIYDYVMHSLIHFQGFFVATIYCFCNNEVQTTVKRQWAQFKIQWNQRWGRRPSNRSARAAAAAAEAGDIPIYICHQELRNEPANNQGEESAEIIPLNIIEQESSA

T3: rat amylin receptor (rat calcitonin receptor + rat RAMP 3) (rat, UniProt P32214 25-516; Q9JJ73 23-147)
T3 construct: whole, on cells; Membranes prepared from transiently transfected BHK tk'ts 13 cells (Assay VI); also called rAmylin-R; rAmylin
T3 sequence (looked up) 1: T1 sequence (looked up)
T3 sequence (looked up) 2: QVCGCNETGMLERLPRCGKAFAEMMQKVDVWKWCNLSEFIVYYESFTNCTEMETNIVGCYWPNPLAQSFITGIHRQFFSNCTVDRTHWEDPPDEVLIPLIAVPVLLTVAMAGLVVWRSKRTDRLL

B1: N^ε1-[2-[2-[2-[[(4S)-4-carboxy-4-(19-carboxynonadecanoylamino)butanoyl]amino]ethoxy]ethoxy]acetyl]-[Arg17,Pro21,Pro27,Pro29,Pro34]-h-amylin (peptide)
peptide: K([AEEA-γGlu-C20 diacid])CNTATCATQRLANFLRHSSPNFGAIPSPTNVGPNTY-NH2
modifications: disulfide 2-7; N-terminus assumed
SMILES: CC[C@H](C)[C@H](NC(=O)[C@H](C)NC(=O)CNC(=O)[C@H](Cc1ccccc1)NC(=O)[C@H](CC(N)=O)NC(=O)[C@@H]1CCCN1C(=O)[C@H](CO)NC(=O)[C@H](CO)NC(=O)[C@H](Cc1c[nH]cn1)NC(=O)[C@H](CCCNC(=N)N)NC(=O)[C@H](CC(C)C)NC(=O)[C@H](Cc1ccccc1)NC(=O)[C@H](CC(N)=O)NC(=O)[C@H](C)NC(=O)[C@H](CC(C)C)NC(=O)[C@H](CCCNC(=N)N)NC(=O)[C@H](CCC(N)=O)NC(=O)[C@@H](NC(=O)[C@H](C)NC(=O)[C@@H]1CSSC[C@H](NC(=O)[C@@H](N)CCCCNC(=O)COCCOCCNC(=O)CC[C@H](NC(=O)CCCCCCCCCCCCCCCCCCC(=O)O)C(=O)O)C(=O)N[C@@H](CC(N)=O)C(=O)N[C@@H]([C@@H](C)O)C(=O)N[C@@H](C)C(=O)N[C@@H]([C@@H](C)O)C(=O)N1)[C@@H](C)O)C(=O)N1CCC[C@H]1C(=O)N[C@@H](CO)C(=O)N1CCC[C@H]1C(=O)N[C@H](C(=O)N[C@@H](CC(N)=O)C(=O)N[C@H](C(=O)NCC(=O)N1CCC[C@H]1C(=O)N[C@@H](CC(N)=O)C(=O)N[C@H](C(=O)N[C@@H](Cc1ccc(O)cc1)C(N)=O)[C@@H](C)O)C(C)C)[C@@H](C)O
notes: Analogue of human amylin; also called compound 56
B2: N^ε1-[2-[2-[2-[[(4S)-4-carboxy-4-(19-carboxynonadecanoylamino)butanoyl]amino]ethoxy]ethoxy]acetyl]-[Arg17,Pro21,Pro27,Pro34,His35]-h-amylin (peptide)
peptide: K([AEEA-γGlu-C20 diacid])CNTATCATQRLANFLRHSSPNFGAIPSSTNVGPHTY-NH2
modifications: disulfide 2-7; N-terminus assumed
SMILES: CC[C@H](C)[C@H](NC(=O)[C@H](C)NC(=O)CNC(=O)[C@H](Cc1ccccc1)NC(=O)[C@H](CC(N)=O)NC(=O)[C@@H]1CCCN1C(=O)[C@H](CO)NC(=O)[C@H](CO)NC(=O)[C@H](Cc1c[nH]cn1)NC(=O)[C@H](CCCNC(=N)N)NC(=O)[C@H](CC(C)C)NC(=O)[C@H](Cc1ccccc1)NC(=O)[C@H](CC(N)=O)NC(=O)[C@H](C)NC(=O)[C@H](CC(C)C)NC(=O)[C@H](CCCNC(=N)N)NC(=O)[C@H](CCC(N)=O)NC(=O)[C@@H](NC(=O)[C@H](C)NC(=O)[C@@H]1CSSC[C@H](NC(=O)[C@@H](N)CCCCNC(=O)COCCOCCNC(=O)CC[C@H](NC(=O)CCCCCCCCCCCCCCCCCCC(=O)O)C(=O)O)C(=O)N[C@@H](CC(N)=O)C(=O)N[C@@H]([C@@H](C)O)C(=O)N[C@@H](C)C(=O)N[C@@H]([C@@H](C)O)C(=O)N1)[C@@H](C)O)C(=O)N1CCC[C@H]1C(=O)N[C@@H](CO)C(=O)N[C@@H](CO)C(=O)N[C@H](C(=O)N[C@@H](CC(N)=O)C(=O)N[C@H](C(=O)NCC(=O)N1CCC[C@H]1C(=O)N[C@@H](Cc1c[nH]cn1)C(=O)N[C@H](C(=O)N[C@@H](Cc1ccc(O)cc1)C(N)=O)[C@@H](C)O)C(C)C)[C@@H](C)O
notes: Analogue of human amylin; also called compound 58
B3: N^ε1-[2-[2-[2-[[(4S)-4-carboxy-4-(19-carboxynonadecanoylamino)butanoyl]amino]ethoxy]ethoxy]acetyl]-[Gly14,Arg17,Pro21,Pro27,Pro31]-h-amylin (peptide)
peptide: K([AEEA-γGlu-C20 diacid])CNTATCATQRLAGFLRHSSPNFGAIPSSTPVGSNTY-NH2
modifications: disulfide 2-7; N-terminus assumed
SMILES: CC[C@H](C)[C@H](NC(=O)[C@H](C)NC(=O)CNC(=O)[C@H](Cc1ccccc1)NC(=O)[C@H](CC(N)=O)NC(=O)[C@@H]1CCCN1C(=O)[C@H](CO)NC(=O)[C@H](CO)NC(=O)[C@H](Cc1c[nH]cn1)NC(=O)[C@H](CCCNC(=N)N)NC(=O)[C@H](CC(C)C)NC(=O)[C@H](Cc1ccccc1)NC(=O)CNC(=O)[C@H](C)NC(=O)[C@H](CC(C)C)NC(=O)[C@H](CCCNC(=N)N)NC(=O)[C@H](CCC(N)=O)NC(=O)[C@@H](NC(=O)[C@H](C)NC(=O)[C@@H]1CSSC[C@H](NC(=O)[C@@H](N)CCCCNC(=O)COCCOCCNC(=O)CC[C@H](NC(=O)CCCCCCCCCCCCCCCCCCC(=O)O)C(=O)O)C(=O)N[C@@H](CC(N)=O)C(=O)N[C@@H]([C@@H](C)O)C(=O)N[C@@H](C)C(=O)N[C@@H]([C@@H](C)O)C(=O)N1)[C@@H](C)O)C(=O)N1CCC[C@H]1C(=O)N[C@@H](CO)C(=O)N[C@@H](CO)C(=O)N[C@H](C(=O)N1CCC[C@H]1C(=O)N[C@H](C(=O)NCC(=O)N[C@@H](CO)C(=O)N[C@@H](CC(N)=O)C(=O)N[C@H](C(=O)N[C@@H](Cc1ccc(O)cc1)C(N)=O)[C@@H](C)O)C(C)C)[C@@H](C)O
notes: Analogue of human amylin; also called compound 71
B4: N^ε1-[2-[2-[2-[[(4S)-4-carboxy-4-(19-carboxynonadecanoylamino)butanoyl]amino]ethoxy]ethoxy]acetyl]-[His14,Arg17,Pro21,Pro27,Arg34]-h-amylin (peptide)
peptide: K([AEEA-γGlu-C20 diacid])CNTATCATQRLAHFLRHSSPNFGAIPSSTNVGRNTY-NH2
modifications: disulfide 2-7; N-terminus assumed
SMILES: CC[C@H](C)[C@H](NC(=O)[C@H](C)NC(=O)CNC(=O)[C@H](Cc1ccccc1)NC(=O)[C@H](CC(N)=O)NC(=O)[C@@H]1CCCN1C(=O)[C@H](CO)NC(=O)[C@H](CO)NC(=O)[C@H](Cc1c[nH]cn1)NC(=O)[C@H](CCCNC(=N)N)NC(=O)[C@H](CC(C)C)NC(=O)[C@H](Cc1ccccc1)NC(=O)[C@H](Cc1c[nH]cn1)NC(=O)[C@H](C)NC(=O)[C@H](CC(C)C)NC(=O)[C@H](CCCNC(=N)N)NC(=O)[C@H](CCC(N)=O)NC(=O)[C@@H](NC(=O)[C@H](C)NC(=O)[C@@H]1CSSC[C@H](NC(=O)[C@@H](N)CCCCNC(=O)COCCOCCNC(=O)CC[C@H](NC(=O)CCCCCCCCCCCCCCCCCCC(=O)O)C(=O)O)C(=O)N[C@@H](CC(N)=O)C(=O)N[C@@H]([C@@H](C)O)C(=O)N[C@@H](C)C(=O)N[C@@H]([C@@H](C)O)C(=O)N1)[C@@H](C)O)C(=O)N1CCC[C@H]1C(=O)N[C@@H](CO)C(=O)N[C@@H](CO)C(=O)N[C@H](C(=O)N[C@@H](CC(N)=O)C(=O)N[C@H](C(=O)NCC(=O)N[C@@H](CCCNC(=N)N)C(=O)N[C@@H](CC(N)=O)C(=O)N[C@H](C(=O)N[C@@H](Cc1ccc(O)cc1)C(N)=O)[C@@H](C)O)C(C)C)[C@@H](C)O
notes: Analogue of human amylin; also called compound 84
B5: N^ε1-[2-[2-[2-[[(4S)-4-carboxy-4-(19-carboxynonadecanoylamino)butanoyl]amino]ethoxy]ethoxy]acetyl]-[Arg17,Pro21,Pro27,Pro31,His35]-h-amylin (peptide)
peptide: K([AEEA-γGlu-C20 diacid])CNTATCATQRLANFLRHSSPNFGAIPSSTPVGSHTY-NH2
modifications: disulfide 2-7; N-terminus assumed
SMILES: CC[C@H](C)[C@H](NC(=O)[C@H](C)NC(=O)CNC(=O)[C@H](Cc1ccccc1)NC(=O)[C@H](CC(N)=O)NC(=O)[C@@H]1CCCN1C(=O)[C@H](CO)NC(=O)[C@H](CO)NC(=O)[C@H](Cc1c[nH]cn1)NC(=O)[C@H](CCCNC(=N)N)NC(=O)[C@H](CC(C)C)NC(=O)[C@H](Cc1ccccc1)NC(=O)[C@H](CC(N)=O)NC(=O)[C@H](C)NC(=O)[C@H](CC(C)C)NC(=O)[C@H](CCCNC(=N)N)NC(=O)[C@H](CCC(N)=O)NC(=O)[C@@H](NC(=O)[C@H](C)NC(=O)[C@@H]1CSSC[C@H](NC(=O)[C@@H](N)CCCCNC(=O)COCCOCCNC(=O)CC[C@H](NC(=O)CCCCCCCCCCCCCCCCCCC(=O)O)C(=O)O)C(=O)N[C@@H](CC(N)=O)C(=O)N[C@@H]([C@@H](C)O)C(=O)N[C@@H](C)C(=O)N[C@@H]([C@@H](C)O)C(=O)N1)[C@@H](C)O)C(=O)N1CCC[C@H]1C(=O)N[C@@H](CO)C(=O)N[C@@H](CO)C(=O)N[C@H](C(=O)N1CCC[C@H]1C(=O)N[C@H](C(=O)NCC(=O)N[C@@H](CO)C(=O)N[C@@H](Cc1c[nH]cn1)C(=O)N[C@H](C(=O)N[C@@H](Cc1ccc(O)cc1)C(N)=O)[C@@H](C)O)C(C)C)[C@@H](C)O
notes: Analogue of human amylin; also called compound 57

molecular target: T1, rat calcitonin receptor; assay: ratio of binding IC50s: rat calcitonin receptor / rat amylin receptor (reference)

Binder	Ratio rCT/rAmylin binding
B1	131
B2	76.6
B3	162
B4	94.3
B5	135

molecular target: T1, rat calcitonin receptor; assay: SPA competition vs 125I-calcitonin, membranes of BHK cells with rat calcitonin receptor (Assay VIII)

Binder	IC50
B1	5.26 nM
B2	10.3 nM
B3	44.8 nM
B4	477 nM
B5	24.4 nM

molecular target: T2, human calcitonin receptor; assay: ratio of binding IC50s: human calcitonin receptor / human amylin receptor (reference)
Outline: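 Competition binding by SPA with cell membranes (35 ng/μL) and SPA beads in 50 mM Hepes pH 7.4 with 1 mM CaCl2, 5 mM MgCl2, 0.1% OA and 0.02% Tween20. Incubated 120 min at 25 °C with shaking, then counted.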

Binder	Ratio hCT/hAmylin binding
B1	42.6
B2	109
B3	32
B4	120
B5	133

molecular target: T3, rat amylin receptor (rat calcitonin …); assay: SPA competition vs 125I-rat amylin, membranes of BHK cells with rat calcitonin receptor + rat RAMP3 (Assay VI)

Binder	IC50
B1	0.04 nM
B2	0.135 nM
B3	0.276 nM
B4	5.05 nM
B5	0.181 nM
